For 13 molecules, binding result, Bmax and Kd results are on record in patent US20250042997A1 (PHYLAXIS BIOSCIENCE, published 2025).

The target in test [1] is T1, human Siglec-8 (full-length, on transfected CHO or 293 cells, or native on human eosinophils) (human, UniProt Q9NYZ4 17-499). The test can be described thus: flow cytometry on human eosinophils (CD16- CCR3+) from whole blood; anti-human AF647 secondary; MFI. From the text:
To determine if increasing the valency of Siglec-8 antibodies could enhance agonist activity, the parental llama B12, D1 and E2 VHH sequences were used to generate tetravalent (Tet-B12 (cx8467; SEQ ID NO:50 linked to an Fe), Tet-D1 (cx8469; SEQ ID NO:56 linked to an Fe), and Tet-E2 (cx8463; SEQ ID NO:62 linked to an Fc)) and hexavalent (Hex-B12 (cx8466; SEQ ID NO:51 linked to an Fe), Hex-D1 (cx8523; SEQ ID NO:57 linked to an Fe), and Hex-E2 (cx8522; SEQ ID NO:165 linked to an Fc)), Siglec8-VHH-Fc antibodies linked to a reduced effector function xELL human Fc region via linker 2. The bivalent (Bi-B12 (cx8982), Bi-D1 (cx8983) and Bi-E2 (cx8984)), tetravalent, and hexavalent Siglec8-VHH-Fc antibodies were assessed by flow cytometry for binding to eosinophils (CD16⁻ CCR3⁺). Cells were isolated from whole blood by centrifugation, washed twice with 2% FBS PBS, and resuspended in 1×RBC lysis buffer for 10 minutes at room temperature (RT), washed once in 2% FBS PBS and treated with a second RBC lysis step and washed twice with 2% FBS. Cells were seeded at 200 k/well and resuspended in Human FC block for 10 minutes at RT. Cells were spun down and then resuspended in titrated test articles starting at 200 nM 1:4 and incubated for 30 minutes at 4° C. before being washed twice and resuspended in secondary mixture (2*; anti-CCR3 FITC, anti-human AF647, PI, anti-CD16 BV605) and incubated for 30 minutes at 4° C., washed twice, and bound antibodies were detected via flow cytometry (Novocyte).
As shown in FIG. 2A-2C, bivalent, tetravalent, and hexavalent Siglec8-VHH-Fc antibodies B12 (FIG. 2A), D1 (FIG. 2B) and E2 (FIG. 2C) bound to eosinophils. The calculated affinity was similar between the bivalent, tetravalent, and hexavalent hzSiglec8-VHH-Fc antibodies. The observed Bmax was reduced with increasing valency as anticipated, due the fact that the Fc portion of the antibody was detected in this assay and the ratio of Fc regions to anti-Siglec-8 binding domains is inverse to valency. No binding was observed on other granulocyte populations (CD16⁺ CCR3⁻).
On the technique in general: A flow cytometer gives signals particle by particle.

The target in test [2] is T1, human Siglec-8 (full-length, on …). The test can be described thus: flow cytometry on 293 cells transiently transfected with full-length human Siglec-8; A647 anti-human Fc-gamma secondary; median fluorescence, nonlinear fit; table under the graph. On the procedure:
(§1) The binding of the lmG2 and humanized versions (further including Siglec8 hzG2v14), formatted as monomeric VHH-hIgG1 fusions proteins using a non-dimerizing human IgG1 Fe variant region lacking a hinge Fe NNT, was assessed by flow cytometry using 293 cells that had been transiently transfected with full-length human Siglec-8 and detected with an anti-human AF647 secondary antibody. Binding specificity was assessed using untransfected 293 cells as a control. For the binding assays, Siglec-8 293 cells or untransformed 293 cells were seeded in a 96 well U-bottom plate with 50 k cells/well in FACS buffer and incubated at 4° C. with a titration of anti-Siglec8-VHH-NNT for 30 minutes. After washing, the plates were incubated with an A647-conjugated anti-human Fcγ specific secondary antibody diluted 1:10,000 in FACS buffer for 20 minutes at 4° C. The plates were washed, and binding was determined by flow cytometry quantitating anti-human A647 median fluorescent intensity. The maximum specific binding (Bmax) and affinity (Kd) for was determined from the flow cytometry binding data using a nonlinear fit model.

Test [3] shares this target. The test is described as follows: flow cytometry on 293 cells transiently transfected with full-length human Siglec-8; A647 anti-human Fc-gamma secondary; median fluorescence, nonlinear fit; table under the graph (Kd column without unit, concentration axis nM Ab). On the procedure: as §1

T1 sequence (Q9NYZ4 17-499): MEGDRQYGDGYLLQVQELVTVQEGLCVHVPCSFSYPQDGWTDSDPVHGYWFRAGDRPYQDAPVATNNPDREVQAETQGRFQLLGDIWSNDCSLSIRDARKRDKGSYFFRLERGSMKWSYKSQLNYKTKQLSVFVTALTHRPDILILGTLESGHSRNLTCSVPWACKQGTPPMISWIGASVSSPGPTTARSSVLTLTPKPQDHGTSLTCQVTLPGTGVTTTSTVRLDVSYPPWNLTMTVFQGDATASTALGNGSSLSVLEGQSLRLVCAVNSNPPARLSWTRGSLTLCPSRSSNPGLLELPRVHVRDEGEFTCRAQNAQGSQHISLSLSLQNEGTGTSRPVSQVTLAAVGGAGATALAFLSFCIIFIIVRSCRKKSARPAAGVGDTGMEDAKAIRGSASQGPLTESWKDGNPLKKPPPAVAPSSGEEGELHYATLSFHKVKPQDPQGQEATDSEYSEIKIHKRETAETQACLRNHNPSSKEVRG

B1: Hex-B12, hexavalent Siglec8-VHH-Fc (xELL) (Fc fusion)
chain: QVQVVESGGGLVQPGGSLRLSCAASGSTSLLNAMAWYRQAPGKERELVAAISSGGGTYYADSVKGRFTISTNNAKNTLYLQMNSLKPEDTAMYYCAPGPNYSDYEEINWGQGTQVTVKPGGSGGSQVQVVESGGGLVQPGGSLRLSCAASGSTSLLNAMAWYRQAPGKERELVAAISSGGGTYYADSVKGRFTISTNNAKNTLYLQMNSLKPEDTAMYYCAPGPNYSDYEEINWGQGTQVTVKPGGSGGSQVQVVESGGGLVQPGGSLRLSCAASGSTSLLNAMAWYRQAPGKERELVAAISSGGGTYYADSVKGRFTISTNNAKNTLYLQMNSLKPEDTAMYYCAPGPNYSDYEEINWGQGTQVTVKPGGGGDKTHTCPPCPAPGGPSVFLFPPKPKDTLMISRTPEVTCVVVDVSHEDPEVKFNWYVDGVEVHNAKTKPREEQYNSTYRVVSVLTVLHQDWLNGKEYKCKVSNKALPAPIEKTISKAKGQPREPQVYTLPPSRDELTKNQVSLTCLVKGFYPSDIAVEWESNGQPENNYKTTPPVLDSDGSFFLYSKLTVDKSRWQQGNVFSCSVMHEALHNHYTQKSLSLSPGK
notes: Homodimer through the Fc; also called cx8466
Turning to B1, the binding result in test [1] is reported as “binds”.

B2: Hex-D1, hexavalent Siglec8-VHH-Fc (xELL) (Fc fusion)
chain: QVQLVESGGGLVQPGGSLRLSCAASGSIASIHGMGWYRQAPGKERELVAAIAGEGSTYYADSVKGRFTISRDFAKNTLYLQMNNLKAEDTAMYYCANNDERDDYWGQGTQVTVKPGGSGGSQVQLVESGGGLVQPGGSLRLSCAASGSIASIHGMGWYRQAPGKERELVAAIAGEGSTYYADSVKGRFTISRDFAKNTLYLQMNNLKAEDTAMYYCANNDERDDYWGQGTQVTVKPGGSGGSQVQLVESGGGLVQPGGSLRLSCAASGSIASIHGMGWYRQAPGKERELVAAIAGEGSTYYADSVKGRFTISRDFAKNTLYLQMNNLKAEDTAMYYCANNDERDDYWGQGTQVTVKPGGGGDKTHTCPPCPAPGGPSVFLFPPKPKDTLMISRTPEVTCVVVDVSHEDPEVKFNWYVDGVEVHNAKTKPREEQYNSTYRVVSVLTVLHQDWLNGKEYKCKVSNKALPAPIEKTISKAKGQPREPQVYTLPPSRDELTKNQVSLTCLVKGFYPSDIAVEWESNGQPENNYKTTPPVLDSDGSFFLYSKLTVDKSRWQQGNVFSCSVMHEALHNHYTQKSLSLSPGK
notes: Homodimer through the Fc; also called cx8523
Regarding B2, the binding result in test [1] is reported as “binds”.

B3: Tet-B12, tetravalent Siglec8-VHH-Fc (xELL) (Fc fusion)
chain: QVQVVESGGGLVQPGGSLRLSCAASGSTSLLNAMAWYRQAPGKERELVAAISSGGGTYYADSVKGRFTISTNNAKNTLYLQMNSLKPEDTAMYYCAPGPNYSDYEEINWGQGTQVTVKPGGSGGSQVQVVESGGGLVQPGGSLRLSCAASGSTSLLNAMAWYRQAPGKERELVAAISSGGGTYYADSVKGRFTISTNNAKNTLYLQMNSLKPEDTAMYYCAPGPNYSDYEEINWGQGTQVTVKPGGGGDKTHTCPPCPAPGGPSVFLFPPKPKDTLMISRTPEVTCVVVDVSHEDPEVKFNWYVDGVEVHNAKTKPREEQYNSTYRVVSVLTVLHQDWLNGKEYKCKVSNKALPAPIEKTISKAKGQPREPQVYTLPPSRDELTKNQVSLTCLVKGFYPSDIAVEWESNGQPENNYKTTPPVLDSDGSFFLYSKLTVDKSRWQQGNVFSCSVMHEALHNHYTQKSLSLSPGK
notes: Homodimer through the Fc; also called cx8467
Consider B3, for which the binding result in test [1] is “binds”.

B4: Tet-D1, tetravalent Siglec8-VHH-Fc (xELL) (Fc fusion)
chain: QVQLVESGGGLVQPGGSLRLSCAASGSIASIHGMGWYRQAPGKERELVAAIAGEGSTYYADSVKGRFTISRDFAKNTLYLQMNNLKAEDTAMYYCANNDERDDYWGQGTQVTVKPGGSGGSQVQLVESGGGLVQPGGSLRLSCAASGSIASIHGMGWYRQAPGKERELVAAIAGEGSTYYADSVKGRFTISRDFAKNTLYLQMNNLKAEDTAMYYCANNDERDDYWGQGTQVTVKPGGGGDKTHTCPPCPAPGGPSVFLFPPKPKDTLMISRTPEVTCVVVDVSHEDPEVKFNWYVDGVEVHNAKTKPREEQYNSTYRVVSVLTVLHQDWLNGKEYKCKVSNKALPAPIEKTISKAKGQPREPQVYTLPPSRDELTKNQVSLTCLVKGFYPSDIAVEWESNGQPENNYKTTPPVLDSDGSFFLYSKLTVDKSRWQQGNVFSCSVMHEALHNHYTQKSLSLSPGK
notes: Homodimer through the Fc; also called cx8469
As to B4, the binding result in test [1] is “binds”.

B5: Siglec8 hzG2v2.1, monomeric VHH-hIgG1 fusion (Fc NNT) (Fc fusion)
chain: EVQLLESGGGEVQPGGSLRLSCAASGSISIFSMYVVAWYRQAPGKEREWVAFIQRGGTANYAESAKGRFTISRDNAKNTVYLQMSSLRAEDTAVYYCNYINSDNEIGGPWGQGTLVTVKP
notes: Monomeric format; not shown: non-dimerizing human IgG1 Fc variant lacking a hinge (Fc NNT)
A word on the Kd: it is the constant that tells how readily two partners part at equilibrium. In the case of B5, the Bmax in test [2] is 3.81e+06 Median (anti-human A647). The Kd in test [3] turned out to be 1.57 nM.

B6: Siglec8 hzG2v24, monomeric VHH-hIgG1 fusion (Fc NNT) (Fc fusion)
chain: QVTLKESGGGLVRTGGSLRLSCAASGSISIFSMYVVAWYRQAPGKQREWVAFIQRGGTANYAESAKGRFTISRDNAKNTVYLQMSSLRAEDTAVYYCNYINSDNEIGGPWGQGTLVTVKP
notes: as for B5
Take B6: the Bmax in test [2] was 1.27e+06 Median (anti-human A647). In test [3], this molecule gave a Kd of 0.181 nM.

B7: Siglec8 hzG2v16, monomeric VHH-hIgG1 fusion (Fc NNT) (Fc fusion)
chain: EVQLLESGGGEVQPGGSLRLSCAASGSISIFSLYVVAWYRQAPGKEREWVAFIQRGGTANYAESAKGRFTISRDNAKNTVYLQMSSLRAEDTAVYYCNYINSDNEIGGPWGQGTLVTVKP
notes: as for B5
For B7, in test [2], the Bmax was 1.49e+06 Median (anti-human A647). The molecule also returned a Kd in test [3] of 0.1 nM.

B8: Siglec8 hzG2v6.1, monomeric VHH-hIgG1 fusion (Fc NNT) (Fc fusion)
chain: EVQLLESGGGEVQPGGSLRLSCAASGSISIFSMYVVAWYRQAPGKQREWVSFIQRGGTANYAESAKGRFTISRDNAKNTVYLQMSSLRAEDTAVYYCNYINSDNEIGGPWGQGTLVTVKP
notes: as for B5
For B8, the Bmax in test [2] was 3.63e+06 Median (anti-human A647). In test [3], the affinity, expressed as Kd, was 1.7 nM.

B9: Siglec8 hzG2v13, monomeric VHH-hIgG1 fusion (Fc NNT) (Fc fusion)
chain: EVQLLESGGGEVQPGGSLRLSCAASGSISIFSMYVVAWYRQAPGKEREWVAFIQRGGTANYAESAKGRFTISRDNAKNTVYLQMSSLRAEDTAVYYCNYITSDNEIGGPWGQGTLVTVKP
notes: as for B5
As to B9, the Bmax in test [2] is 1.06e+06 Median (anti-human A647). Further, the affinity in test [3], expressed as Kd, was 0.138 nM.

B10: Siglec8 hzG2v11, monomeric VHH-hIgG1 fusion (Fc NNT) (Fc fusion)
chain: EVQLLESGGGEVQPGGSLRLSCAASGSISIFSMYVVAWYRQAPGKEREWVAFIQRGGTANYAESAKGRFTISRDNAKNTVYLQMSSLRAEDTAVYYCNYIQSDNEIGGPWGQGTLVTVKP
notes: as for B5
For the molecule B10, the Bmax in test [2] was 1.47e+06 Median (anti-human A647). Besides, the Kd in test [3] was 0.14 nM.

B11: Siglec8 hzG2v15, monomeric VHH-hIgG1 fusion (Fc NNT) (Fc fusion)
chain: EVQLLESGGGEVQPGGSLRLSCAASGSISIFSYYVVAWYRQAPGKEREWVAFIQRGGTANYAESAKGRFTISRDNAKNTVYLQMSSLRAEDTAVYYCNYINSDNEIGGPWGQGTLVTVKP
notes: as for B5
On to B11, for which the Bmax in test [2] is 1.4e+06 Median (anti-human A647). The molecule also came in with a Kd in test [3] of 0.175 nM.

B12: Siglec8 hzG2v12, monomeric VHH-hIgG1 fusion (Fc NNT) (Fc fusion)
chain: EVQLLESGGGEVQPGGSLRLSCAASGSISIFSMYVVAWYRQAPGKEREWVAFIQRGGTANYAESAKGRFTISRDNAKNTVYLQMSSLRAEDTAVYYCNYISSDNEIGGPWGQGTLVTVKP
notes: as for B5
For B12, the Bmax in test [2] is 1.25e+06 Median (anti-human A647). In test [3], this molecule gave a Kd of 0.327 nM.

B13: Siglec8 hzG2v14, monomeric VHH-hIgG1 fusion (Fc NNT) (Fc fusion)
chain: EVQLLESGGGEVQPGGSLRLSCAASGSISIFSMYVVAWYRQAPGKEREWVAFIQRGGTANYAESAKGRFTISRDNAKNTVYLQMSSLRAEDTAVYYCNYINTDNEIGGPWGQGTLVTVKP
notes: as for B5
With B13, in test [2], the Bmax was 1.35e+06 Median (anti-human A647). The same molecule had a Kd in test [3] of 0.164 nM.
